From article PMC3400614, “Cofactor Binding Protects Flavodoxin against Oxidative Stress” (PLoS ONE, 2012)

Tests used:
[1] = biological target: T1, flavodoxin II (flavodoxin; apoflavodoxin) (Azotobacter vinelandii, UniProt P00324); test: native nano-electrospray mass spectrometry; assay type: binding; conditions: non-covalent, one FMN per monomer; 50 mM ammonium acetate, 0.1 mM EDTA, pH 6.8
T1 construct: gene nifF; full-length wild type, 179 residues, expressed in E. coli TG2 (pAV34); monomer; apoprotein made by TCA precipitation

[2] = biological target: Apoflavodoxin (A. vinelandii flavodoxin II without FMN cofactor) (Azotobacter vinelandii) (UniProt P00324); test: SEC; data not shown; apoflavodoxin freshly prepared and during storage
[3] = biological target: Apoflavodoxin (A. vinelandii flavodoxin II without FMN cofactor) (Azotobacter vinelandii) (UniProt P00324); test: anion exchange chromatography; MonoQ HR5/5, 25 mM Tris-HCl pH 8.0, KCl gradient, 1.0 mL/min, 25°C; apoflavodoxin 50 μM left without DTT
[4] = biological target: Apoflavodoxin (A. vinelandii flavodoxin II without FMN cofactor) (Azotobacter vinelandii) (UniProt P00324); test: SEC; Superdex 75 HR 10/30, 0.5 mL/min, 25°C; apoprotein (38 μM wild type, 79 μM C69A) fresh and after 22-24 h with 10 mM H2O2 at 4°C; DTT removed before
[5] = biological target: Apoflavodoxin (A. vinelandii flavodoxin II without FMN cofactor) (Azotobacter vinelandii) (UniProt P00324); test: LC-MS; reversed phase (acetonitrile, TFA) and electrospray MS; protein 5 µM after 30 min at room temperature with 10 or 100 mM H2O2, with or without 190-200 µM NBD-Cl; denaturing, shows covalent dimers only

T1 sequence (P00324 2-180): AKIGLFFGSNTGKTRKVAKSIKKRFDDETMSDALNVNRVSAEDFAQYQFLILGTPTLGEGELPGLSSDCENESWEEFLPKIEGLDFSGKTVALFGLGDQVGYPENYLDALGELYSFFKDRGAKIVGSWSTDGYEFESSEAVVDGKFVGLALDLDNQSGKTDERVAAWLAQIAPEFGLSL

Molecule	native nano-electrospray mass spectrometry [1]	stoichiometry N [2]	stoichiometry N [3]	stoichiometry N [4]	stoichiometry N [5]
Cc1cc2nc3c(=O)[nH]c(=O)nc-3n(C[C@H](O)[C@H](O)[C@H](O)COP(=O)(O)O)c2cc1C [FMN]	flavodoxin indeed contains a single, non-covalently bound, FMN cofactor	–	–	–	–
Apoflavodoxin (A. vinelandii flavodoxin II without FMN cofactor) (from UniProt P00324 1-180) (natural protein)	–	2	2	2	2
